Results on 1 molecule are retold here after patent publication US20070099268A1, “Chimeric HCN channels” (priority 2005, published 2007).

For one experiment, the system named is Xenopus oocytes. Nature of the experiment: Two-microelectrode voltage clamp of mHCN2 and mE324A expressed in Xenopus oocytes. The format is cell-based, Xenopus laevis. The protocol: Oocytes were prepared from mature female Xenopus laevis in accordance with an approved protocol as previously described (Yu et al., 2004).
For expression of HCN in Xenopus oocytes, oocytes were injected with 5 ng of cRNA made from mouse wild-type mHCN2 and mutant mHCN2 (E324A) plasmids. Injected oocytes were incubated at 18° C. for 24-48 h prior to electrophysiological analysis.
For measurements in Xenopus oocytes, oocytes were voltage-clamped using a two-microelectrode voltage clamp technique. The extracellular recording solution (OR2) contained (in mM): NaCl, 80; KCl, 2; MgCl2, 1; and Na-HEPES, 5 (pH 7.6). For the recording of steady state activation of expressed Wt mHCN2, currents were elicited by 2-s long hyperpolarizing pulses between −30 mV and −160 mV with 10 mV increments, followed by a 1-s depolarizing pulse to +15 mV. The holding potential was −30 mV. As to the mHCN2 (E324A), currents were elicited by 3-s-long hyperpolarizing pulses between +20 mV and −130 mV with 10 mV increments, followed by a 1 second depolarizing pulse to +50 mV. The holding potential was +20 mV. To construct the current/voltage relationship for wildtype (Wt) mHCN2, the cell was held at […], the current was elicited by a 2-s hyperpolarizing voltage step to −140 mV to saturate activation, and followed by 2-s depolarizing voltage steps between […] and +50 mV in 10 mV increments. For mHCN2 (E324A), the cell was held at +20 mV, current was elicited by a 1.5-s hyperpolarizing voltage step to −110 mV to saturate activation, and then followed by 1.5-s depolarizing voltage steps between −80 mV and +50 mV in 10 mV increments for the recording of tail currents. To record the current amplitudes for Wt mHCN2, the current was evoked by applying a 3-s hyperpolarizing voltage pulse to −120 mV from a holding potential of −30 mV. For mHCN2 (E324A), the current was evoked by applying a 3-s hyperpolarizing voltage pulse to −120 mV from a holding potential of +20 mV.

The test system of experiment [1] is mammalian expression systems. The note with it: cited from earlier work.
The next experiment relates to oocyte. As to conditions: cited from earlier work.
Experiment [2] relates to neonatal rat ventricular myocytes. Nature of the experiment: Voltage clamp of HCN2 or HCN4 plasmid (lipofectin) expressed in neonatal rat ventricular myocytes. The format is cell-based. The source says:
cDNAs encoding mouse HCN2 (mHCN2, GenBank AJ225122) or HCN4 (mHCN4, GenBank deposit in progress) were subcloned into the pCI mammalian expression vector (Promega, Madison, Wis.). The resulting plasmids (pCI-mHCN2 or pCI-mHCN4) were used for neonatal rat ventricular myocyte transfection, as indicated. A separate plasmid (pEGFP-CI; Clontech, Palo Alto, Calif.) expressing the gene of enhanced green fluorescent protein (EGFP) as a visual marker for successful DNA transfer was included in all transfection experiments. For transfection, 2 μg of pCI-mHCN and […] of pEGFP-CI were first incubated in 200 μl of SFM containing 10 μl of lipofectin (Gibco Life Technologies, Rockville, Md.) at room temperature for 45 min. The mixture was then added to a 35-mm petri dish containing […] suspended in 0.8 ml of SFM. After overnight incubation at 37° C. in a CO2 incubator, the medium containing the plasmids and lipofectin was discarded and the dish was refilled with 2 ml of fresh SFM.
The whole-cell voltage clamp technique was employed to record native If or expressed IHCN2 or IHCN4. Action potentials were recorded in current clamp mode, again using a whole cell patch electrode. Experiments were carried out on cells superfused at 35° C. Extracellular solution contained (mM): NaCl, 140; NaOH, 2.3; MgCl2, 1; KCl, 5.4; CaCl2, 1.0; HEPES, 5; glucose, 10; pH 7.4. To record from myocytes expressing native currents (If), myocytes expressing HCN2 (IHCN2) or HCN4 (IHCN4), [K^+]0 was increased to 10 mM, and MnCl2 (2 mM) and BaCl2 (4 mM) added to the superfusate to eliminate calcium and inward rectifier (IK1) currents. In some experiments CsCl (4 mM) was used extracellularly to identify the pacemaker current as the Cs-sensitive current. The patch pipette solution included (mM): aspartic acid, 130; KOH, 146; NaCl, 10; CaCl2, 2; EGTA-KOH, 5; Mg-ATP, 2; HEPES-KOH, 10, pH 7.2. Where indicated, 10 μM cAMP was included in the pipette solution. A fast solution changing apparatus expedited the experimental protocols. The pipette resistance was typically 1-3 M. An Axopatch-200B amplifier and pClampS software (Axon Instruments) were used for acquisition and data analysis. […]
The activation relation of the native or expressed current can be determined from the steady-state I-V relation. In this case, the reversal potential (Vf) was separately determined from the fully activated I-V relation (Accili et al., 1991) and used to generate the activation relation (y=I/(gmax*(V−Vf)), where gmax is the maximal conductance). […] Tail currents were measured at a negative voltage (−125 mV) to avoid contamination by transient outward and other currents at less negative voltages. […]

Experiment [3] has as its system cell-free patches from Xenopus oocytes. As to conditions: cited from earlier work.

Several values for one entry are separate records, joined by “and”; a condition that tells them apart may be missing. Equal values may be shown once. Entries after “also recorded” stand apart in the source; their conditions may differ.

B1: mHCN2: mouse HCN2 hyperpolarization-activated, cyclic nucleotide-gated channel, wild type (GenBank AJ225122) (protein)
chain: MDARGGGGRPGDSPGTTPAPGPPPPPPPPAPPQPQPPPAPPPNPTTPSHPESADEPGPRARLCSRDSACTPGAAKGGANGECGRGEPQCSPEGPARGPKVSFSCRGAASGPSAAEEAGSEEAGPAGEPRGSQASFLQRQFGALLQPGVNKFSLRMFGSQKAVEREQERVKSAGAWIIHPYSDFRFYWDFTMLLFMVGNLIIIPVGITFFKDETTAPWIVFNVVSDTFFLMDLVLNFRTGIVIEDNTEIILDPEKIKKKYLRTWFVVDFVSSIPVDYIFLIVEKGIDSEVYKTARALRIVRFTKILSLLRLLRLSRLIRYIHQWEEIFHMTYDLASAVMRICNLISMMLLLCHWDGCLQFLVPMLQDFPSDCWVSINNMVNHSWSELYSFALFKAMSHMLCIGYGRQAPESMTDIWLTMLSMIVGATCYAMFIGHATALIQSLDSSRRQYQEKYKQVEQYMSFHKLPADFRQKIHDYYEHRYQGKMFDEDSILGELNGPLREEIVNFNCRKLVASMPLFANADPNFVTAMLTKLKFEVFQPGDYIIREGTIGKKMYFIQHGVVSVLTKGNKEMKLSDGSYFGEICLLTRGRRTASVRADTYCRLYSLSVDNFNEVLEEYPMMRRAFETVAIDRLDRIGKKNSILLHKVQHDLSSGVFNNQENAIIQEIVKYDREMVQQAELGQRVGLFPPPPPPQVTSAIATLQQAVAMSFCPQVARPLVGPLALGSPRLVRRAPPGPLPPAASPGPPAASPPAAPSSPRAPRTSPYGVPGSPATRVGPALPARRLSRASRPLSASQPSLPHGVPAPSPAASARPASSSTPRLGPAPTARTAAPSPDRRDSASPGAASGLDPLDSARSRLSSNL
As for B1, the “voltage at which currents saturated” value with Xenopus oocytes is on record as “around −130 mV”. Also, in the experiment with Xenopus oocytes (8-Br-cAMP 1 mM), the “slope (s) with cAMP” value amounted to 9.5 mV. Moreover, the “Vh with cAMP” value in the experiment with Xenopus oocytes (8-Br-cAMP 1 mM extracellular) was −84.9 mV. Also, in the experiment with Xenopus oocytes (Cs+ 5 mM), the “effect of Cs+ on inward current” value is listed as “blocked; also recorded: large inhibition”. Also, the “slope (s), control” value in the experiment with Xenopus oocytes (control) is 13.9 mV. In the experiment on Xenopus oocytes (oocytes), the “activation more negative than mE324A” value amounted to 35 mV. For the same molecule, the “half maximal activation (Vh), control” value in the experiment on Xenopus oocytes (oocytes, control) is on record as −92.7 mV. This molecule returned an induced current in the experiment on Xenopus oocytes (single voltage pulse to −120 mV) of 912.7±63.7 nA. Besides, in experiment [1], the “midpoint of activation reported in other mammalian expression studies” value is −83 to −97 mV. Moreover, the midpoint of activation in the experiment with oocyte was −78 mV. The “slope factor (K)” value in experiment [2] (lipofectin transfection) worked out at 7.7±0.7 mV. Also, the “difference in midpoint of activation of HCN2 relative to HCN4” value in experiment [2] (neonatal myocytes) was 8.5 mV and 9 mV. Further, the “shift of activation curve to more positive potentials by cAMP” value in experiment [3] (binding of cAMP to the CNBD) is listed as 17 mV. Also, the “steady-state activation curve more hyperpolarized than that of HCN1” value in experiment [3] is 20 mV.
